Here are results for 1 substance from PMC6601556.

What is called Kd is the concentration at which binding is half-saturated. Read a low Kd as higher affinity.

Common to all, as to assay: SPR
On the technique in general: In SPR one partner is held on a chip, and binding of the other changes the refractive index at the surface.

The target of assay [1] is 337_1_C08 variant VH H5E2 / VL 2.
Assay [2] has as its target 337_1_C08 variant VH K5T8 / VL 9.
In assay [3] the target is 337_1_C08 variant VH H5E2 / VL 23.
Assay [4] has as its target 337_1_C08 variant VH K5E3 / VL 61.
The target of assay [5] is 337_1_C08 variant VH K5T8 / VL 6.

On to “Monomeric human PD-1 rCD4 antigen (from UniProt Q15116 25-288) (receptor)”, for which the Kd in assay [1] came to 30 nM; in assay [2], 2.9 nM; in assay [3], 54 nM; in assay [4], 4.8 nM; in assay [5] it was 9 nM.
